According to the DeepSol protein solubility set:

Assay: soluble on expression in E. coli; label from the status in PepcDB or PDB records

Row | Sequence | soluble on expression in E. coli
1 | MSLEAKQTKKSLPLRSEIPVEETWRLEDIFPTDEAWEQEFQEVKKMIPKLAEYQGRLGESADVLYEALQYQDEVSMRLGKLYTYAHMRYDQDTTNAFYQGLNDRATSLYSEASSAMAFIVPEILAIDEVKLRSFLEEKQELKLYEHALDEINRQRPHVLSAEEEALLAQAAEVMQSSSSTFSMLNNADLTFPTIIDENGEEVEVTHGRFIRFLESTDRRVRRDAFKAVYDTYEKYKNTFASTLAGTVKKDNFFARVRRYKSAREAALSSNNIPESVYDNLIETVHEHLPLLHRYVRLRKKVLGLDELHMYDLYTPLVQDVKMEVTYEEAKEYMLKALAPLGEEYISIVKEGLENRWVDVRENKGKRSGAYSSGAYGTHPYILLNWQDNVNNLFTLVHEFGHSVHSYYTRKTQPYPYANYSIFVAEVASTCNEALLNDYLLKTMDEEKKRLYLLNHYLEGFRGTVFRQTMFAEFEHMIHIKAQEGEALTADSLTSLYYELNKKYFGDDIVVDQEIGLEWARIPHFYYNYYVYQYATGFSAATALSKQILEEGEPAVKRYIEFLKAGSSDYPIEVLKKAGVDMTSAEPIRQACQVFAEKLEEMENLLSEGHHHHHH | soluble
2 | MSLEAKVDKPRLNQEQAIAIAAVNSQQGFGCFLLEGVTGSGKTEVYLNLITPVLARGEQALVLVPEIGLTPQTINRFRQRFNVPVEVMHSALNDTERLNAWLAARDKVAGIVIGTRSALLTPFAKLGIIIVDEEHDSSYKQQDSLRYHARDVAVMRAHLENIPIVLGSATPALETLHNALSGKYHHLQLTQRAGNALPTRNHALDVKGLYLESGLSAPLIAEMRRHLSAGNQVMLFLNRRGFSPALMCHECGWIAECQRCDAYYTYHQHSNEMRCHHCGSQRPVLHQCKGCGSTQLVTVGVGTEQLEAQLHTLFPEYRSVRIDRDSTRRKGSLESALTAIRKGEYQILIGTQMLAKGHHFPDVTLVALLDVDGSLYSSDFRASERLAQLFIQVAGRAGRASKPGEVVLQTHHPEHSLLQALLHKDYHHFALTALEERKLAQLPPYSFLSLFRAEANHTAQVEDFLRQVRETLRCNPWFDSECMVLGPTPAPLAKRAGKFRWQLLLQTPNRTLMQKILQSARPALQQLPLASKVRWSIDIDPQDLSEGHHHHHH | not soluble
3 | MSLEDTGIFGYSRAGSINGIEYPYVINVKTDFVENDGKLNFMGEEIDRMLIYPSQIKQEIVETESFVIIPNGAELIRRPKNLVSIIMNVHEKYGFSKLIYLSGLPDPYSIPALVYLGVSFFDDAYFRIEGINGLQFTQYGIRRTNEDQTENNMNFVRSMLNVIKDSIMNGTLRDIVEKNLVSSKAAEMIRIADYSYYEEYEKIFPSRTPYIKANTIEDLYRPDIVRYREYVANLYEKPDLDVAVILPCSAKKPYSKSKSHQKVINSLSDLRKYIHEIIVTSPLGVVPRDLEETYPAMFYDIPVIGLWYEDEKVMMKRMLRSYMSRNKYRKVIAFVPDDLEFITDSIPYDTEFIEFKSSNLSKLRQTVEKEKFASKSIDQKKAKYESVLKYQFGSWILPLINGYSLRRNYNQDMIVKDGKILFVYNERLGKFTINKASAEMFVKNGRFLVEIDDFKPTSNVYAMGVRDATDDIRQEDEVVLVHSGEIRGVGIAKMNARAMMELKKGIAVKVREGHHHHHH | soluble
4 | MSLEDVIEQLRELNEPVPVPLELPDEDLLVEIEEQLLINLPFELREFLMKVSDVIYGSLEPVTVSDPQSHTYLPEVAAVAWDQGMPRDMVPLCQVGDDYYAVDIEGQVLLWSSDSGELSDESWDSVWHWAKDVWLASEGHHHHHH | not soluble
5 | MSLEDYTRIVADRMEGQSQVQVRAEGNVVVERNRTTLNADWADYDQSGDTVTAGDRFALQQDGTLIRGETLTYNLEQQTGEAHNVRMETEHGGRRLQSVSRTAEMLGEGHYKLTETQFNTCSAGDAGWYVKAASVEADREKGIGVAKHAAFVFGGVPIFYTPWADFPLDGNRKSGLLVPSLSAGSDGVSLSVPYYFNLAPNLDATFAPGVIGERGAVFDGQVRYLRPDYAGQSDLTWLPHDKKSGRNNRYQAKWQHRHDISDTLQAGVDFNQVSDSGYYRDFYGNKEIAGNVNLNRRVWLDYGGRAAGGSLNAGLSVLKYQTLANQSGYKDKPYALMPRLSADWRKNTGRAQIGVSAQFTRFSHDSRQDGSRLVVYPDIKWDFSNSWGYVRPKLGLHATYYSLNRFGSQEARRVSRTLPIVNIDSGMTFERNTRMFGGGVLQTLEPRLFYNYIPAKSQNDLPNFDSSESSFGYGQLFRENLYYGNDRINTANSLSAAVQSRILDGATGEERFRAGIGQKFYFKNDAVMLDGSVGKKPRSRSDWVAFASSGIGSRFILDSSIHYNQNDKRAENYAVGASYRPAQGKVLNARYKYGRNEKIYLKSDGSYFYDKLSQLDLSAQWPLTRNLSAVVRYNYGFEAKKPIEVLAGAEYKSSCGCWGAGVYAQRYVTGENTYKNAVFFSLQLKDLSSVGRNPADRMDVAVPGYIPAHSLSAGREGHHHHHH | not soluble
6 | MSLEEQLAQNDQPSEKLVRLYGAWAEGGAGVLVTGNVMVAESGKGSINDVLISDDRALEMLKKWAKARTQNDTLLIMQINHAGKQSPAVVNKTPLAPSAVPLVGMNGFINPPRELSADEINGLIQQFVQTAKIAEQAGFSGVQIYAVHGYLISQFLSPHHNRRQDQWGGSLENRMRFLLETYTAIRAAAGKDFLVGVKLNSADFQKGGFDESESVQVVQKLSEMGIDFIEVSGGNYESPQMLAAKDSTRKREAFFIDYAEKARAASQAPLIITGGFRSQTAMEDALSSGHLDLVGIARPFALVPDLANKMQNRTYQTVQADRIQTGVAFVDKKAGAMLEMNWYMTQMDLIGQGKQSNPKIVGVESIAENFAGKEGHHHHHH | not soluble
7 | MSLEEYNLIKPSHCKCQIVELEDIYRRDLNLLVALRVLIEESSVSKAATRLNLSQSAMSRVLGRLRDLLGDPLFTRQGQHLIPTQKALEIDRSLGEPLESLRQLLSPVEFDPQQCDQTFTIATTDYAMQTILPFALPRIYQEAPNVSFNFLPLQHDRLSDQLTYEGADLAICRPTGPVEPLRSEILGRVGVLCLLSKQHPLANQEMSLDDYLSHPHAMIAISDGVKALIEQALIDKPQRKMVLRAYHLEAALAIVDTLPIIITVPADLAYLVAERYDLVVKPLPFQFTPFDYSMIWHARCEHSPAQEWLRSVVREECSRLIAKRIEDMGLNEGHHHHHH | soluble
8 | MSLEFALKAVTEHGPFTDIGKFDQDRWQLFHTDEDRSEAHDLADQHPEKVGEMAALWMSEAKKYHVLPLSDLGVMGILKMEFKPPVPPSRQYAYYPGTSTVPEHSAANTHGVSFKVLADVEFTADSQGILFAHGSRFGGHALYVKNGKLIYVYNFLGIPPEQRLVGDAPRSGKHVVGVEFIKERMGEYKESYGPARLYVDERIVAEAPIRTMTGHFAITGEGLCIGYDSGDGVSNDYRPKFAFSGGKINKVVFDVGADLYVDVETHLVAAMARDEGHHHHHH | soluble
9 | MSLEFAMWAYPWDLLDEGPSEVERRLRDIGIDELNLATNYHTVQAFTPHSPERRTLFARASSYFEPGPEYGDLEPVPYEGMNGDWVADAATGLSDLTLNSWTVGCHNSRLGMANPEYTLESAHGDDLVFGLCPSQPAVQTYLSALVSDLSSRDEFARIELETFDYFYGTGFGWHHQKIHARLGVLGEFLLGLCFCPHCRKNAKAAGVDAERVRSTVADTIDDIVAGDVSHEHPPEEWLADHSTVAAYVDVRERTLASLYATLADAAGTTSLGYYVGAPEPGREWVVGADLQALSNHVDYYCLPAYESSSDAVIGAYNAVETVIDDVPLHIGLLPGHPAIDDEATVVDIVETLDSKGVPRLSFYNYGLLPEQSLEWVETAIETVSEGHHHHHH | soluble
10 | MSLEFSDAELARASALQKRLVTLDSHLDTPANLERGDFDVMQGHAGNRLSQVDYPRMLEGALDGGFWAVYTGQGNRSAAAHLDDRDAGLQRLMKIHNLLAAQPQRFALATTPADAARIKAAGKRVVYISMENASPLVADPSLLRFYYAQGLRLMSTVHFLNNEFADSATDPKGAEWKGLSPAGKQLVQQALGIVIDQSHASDAVFDQLIALSPVPIVLSHSGARAVYNHPRNIDDARLKVLAAHGGVIQVNSYGGYLIDSGASPERKAAEKALADQYGGWEHLKMSDGTALSEALKALDARYPVKRATEEDFFAHLEHVLAVAGPAHVGIGMDWDGGGGVVGLEDVSDLPRITAWLLRKGYSEPQIAGIWGGNLLRVMEQAQAYAAGNRESGVGNREGHHHHHH | not soluble
11 | MSLEIERYIVPKETWPEIIIPVEVQEYIGERKELNLAEELLDRNIREGRGRKVAVYFEDRRVTYRDLYRLSNKIANFLVGIGVQPYDRVGFRTRNMPEAIAVNFGIMKAGAIPVPLNPMWAGKEVSFVSNNAEIKALFVSGDERVFPAVNEVKDEIKTAKAMVVMDGEKEGFIPFSEVTAESAKFDPILLKIGTPALILYTSGTTGLPKGCVHFVENVISSVYLVGKHVWKLTPDDVVGGPAPVSFAMGYGNGCLIPYFHGAAASIWPRFSVENFFKYVEEHGITVFSSLPTSYRMILADPKLEEYMNKYDISSLRLFTGGGEALGAETAKRWKEVFGMDIYESLGATEMLHICIANACAPKPVAGSIGFPVPGYIAKIVDPETGKECGADEVGSLYIKGPTGIRYWNHPSRDLSEKQAKSVKNGWNVLGDFVRKDENGYIYFVSRDDDLIKSSGYRIGPDEIEQPLNTHPAVAECAVIGVPDPEGIRGQVVKAIIRLKEGYTPDEKLKEDILAFLEKHIAKYKLPRIIEFTDKPLPRTPTGKLLRRLLKQSEGHHHHHH | not soluble
12 | MSLEIRRADKDDLDDFVRVYVESYRGLEDYAYTRKRDVKNYFKWLLSRDKDGVMVAEIDGEAVGFVACDTNWFSIFERKKVGEIHELFVLPEFRGEGIGAKLMEKALEYALERNRKVAELWVGRTNYRARRFYASQDLRRPESGGSGSEEGHHHHHH | not soluble
13 | MSLEKQFFHPDRVKYDKDCFTIEGKDIFILSAAFHYFRCPQELWRDRFRKIKEAGFNTVETYVPWNWHERNMPKSVDDYSQCNFDDLKAWLHMAHEEFGLYTIVRPGPFICAEWAGGAYPRWLAKFCPDSYDTSFWLRSNHPEHMKWSEHWYNAVCRVFSEEQLTRKQPGEKGIIMVQLENEYIYFDMESEKKEEFLRVLSDACIRNGIDVPLFTCVTPEVRGSHDPVISQLFDMDNQYVWWNMHEAKSRIEKLKAEQPNAPAFVCELQGGWFSTVGGRLSEDSYLDGRHARGMALMAMAGGSTGLNYYMFFGGTHFAGWGARRMTTTYDYGAPLKENGGVGEKYAAVKGIGEVVDKFGGLLVRSRPVRFDVQGADNLTIGIRRAADGTLFVFLLNRDKKQAFRQLVNLTVEGKPMRIDCQLAALDSKLLVVHAGTDTVEWYPREQTLPEREGHHHHHH | soluble
14 | MSLEKQKGLAIITGASQGIGAVIAAGLATDGYRVVLIARSKQNLEKVHDEIMRSNKHVQEPIVLPLDITDCTKADTEIKDIHQKYGAVDILVNAAAMFMDGSLSEPVDNFRKIMEINVIAQYGILKTVTEIMKVQKNGYIFNVASRAAKYGFADGGIYGSTKFALLGLAESLYRELAPLGIRVTTLCPGWVNTDMAKKAGTPFKDEEMIQPDDLLNTIRCLLNLSENVCIKDIVFEMKKSIIEGHHHHHH | soluble
15 | MSLELKPKRFLVLDDQLVLRKLISRQASFFTRFAVEIDEFSDPAEALRSIAEGGYHLVITDIGMPGMNGIDFIKNVARLGYQSALLIISGYDGKTLQTIADMSVNLGLSCTRFLSKPYSAEAFVAALNGIFSEMERSEAPAVGDVAQLLADLGGETFRMQFAPVRSLHGRRLAGFTLRTLQLPDGRRLAFDRLLALLAGRRMASAALLEIVVERTARLLQDMRLSAGIDDCRVNIRIDEACLSADNVFDRCFMALQQSEVSPACLGFALADGLNRRSDALCFENIAKVKYLGFRLLADGFGQGSLTVSNLFRLPFDQVNAPLEALQWMKILQGEDPGAFRLLRSFGLGQAPVCATGLDDEESLALAQALGCGLGEGDAVSLAVPEEELLQEMAAVPEGEGHHHHHH | soluble
